The source of these data is publication PMC4355918.

The data set addresses hnRNP C1 (UniProt P07910-2 1-293). The experiment in a line: filter binding.

B1: MALAT1 2,577-U (structured_RNA)
RNA: AACUUAAUGUUUUUGCAUUGGUCUUUGAGUUA
For the molecule B1, the binding signal was ~4 fold stronger than N1.
